For 3 substances, percent of the total ALV in the sample that was precipitated and percent of the protein in the sample that was precipitated results are on record in publication PMC2757237.

Test in all cases: co-IP
Experiment [1] has as its target PfGAPM2-GFP (P. falciparum) (UniProt Q8IFN1).
Experiment [2] has as its target PfGAPM3-HA (P. falciparum).
In experiment [3] the target is PfGAPM1-HA (P. falciparum) (UniProt Q8IE80).

For PfALV4 (natural protein), the percent of the total ALV in the sample that was precipitated in experiment [1] stood at 26%; in experiment [2] it was 16%; in experiment [3], 17%.

In the case of “PfGAP45 (from UniProt Q8I5I8 1-204) (natural protein)”, the percent of the protein in the sample that was precipitated in experiment [2] was < 10%.

Consider PfGAP50 (natural protein), for which the percent of the protein in the sample that was precipitated in experiment [1], in experiment [2] and in experiment [3] was < 10% throughout.
